Measured values published in US20130260436A1, “Methods of Identifying and Characterizing Natural Product Gene Clusters” (Victoria LInk Limited, priority 2010, published 2013).

Tests used:
PcpS = PcpS (Pseudomonas aeruginosa, UniProt Q9I4H2); experiment: Carrier protein (CoA) competition assay with PcpS; assay type: biochemical, P. aeruginosa PAO1; conditions: competition with BpsA for limited CoA (250 nM), read-out: IC50 for carrier protein mediated inhibition of BpsA activation
Description: (§1) Another aspect of the invention described is a CoA competition assay for PPTase characterization. Assays of this type consist of two phases. In the first phase is the competition phase in which apo-BpsA and a purified carrier protein (CP) to be characterized compete for a limited pool of CoA which is attached to either the CP to be characterized or apo-BpsA by a PPTase. During this first phase, only the substrates necessary for phosphopantetheinylation are present. Following the competition phase, the production phase is initiated. In the production phase, the substrates required for pigment synthesis by holo-BpsA (L-gln and ATP) are added to reaction vessels and the velocity (A590/s) of the resulting reaction measured. […]
(§2) One limitation of the approach outlined above for determination of PPTase kinetic parameters is that it only provides information about a PPTase of interest with a single carrier protein substrate (that of BpsA). […] Four carrier proteins were employed in assessed using this assay, these were: The peptide carrier protein of BpsA (bPCP), the peptide carrier protein of the first module of the Pseudomonas aeruginosa NRPS PvdD (pPCP), the peptide carrier protein of the Microcysitis aeruginosa NRPS/PKS MycG (mPCP) and the aryl carrier protein from Nostoc punctiforme protein HetM (npArCP). […]

PP1183 = PP1183 (Pseudomonas putida, UniProt Q88NM4); experiment: Carrier protein (CoA) competition assay with PP1183; assay type: biochemical, P. putida KT2440; conditions: competition with BpsA for limited CoA (250 nM), read-out: IC50 for carrier protein mediated inhibition of BpsA activation
Description: as §1, §2

[1] = target: PcpS, phosphopantetheinyl transferase of Pseudomonas aeruginosa PAO1 (Pseudomonas aeruginosa PAO1); experiment: cell-based or functional assay
[2] = target: Sfp, phosphopantetheinyl transferase of Bacillus subtilis subsp. spizizenii ATCC6633 (Bacillus subtilis subsp. spizizenii ATCC6633); experiment: cell-based or functional assay
[3] = target: PP1183, putative phosphopantetheinyl transferase of Pseudomonas putida KT2440 (Pseudomonas putida KT2440); experiment: cell-based or functional assay
Sfp = Sfp (Bacillus spizizenii, UniProt G4NQW2); experiment: Carrier protein (CoA) competition assay with Sfp; assay type: biochemical, B. subtilis subsp. spizizenii ATCC6633; conditions: competition with BpsA for limited CoA (250 nM), read-out: IC50 for carrier protein mediated inhibition of BpsA activation
Description: as §1, §2

PP1183, sequence (Q88NM4 entry or part of it): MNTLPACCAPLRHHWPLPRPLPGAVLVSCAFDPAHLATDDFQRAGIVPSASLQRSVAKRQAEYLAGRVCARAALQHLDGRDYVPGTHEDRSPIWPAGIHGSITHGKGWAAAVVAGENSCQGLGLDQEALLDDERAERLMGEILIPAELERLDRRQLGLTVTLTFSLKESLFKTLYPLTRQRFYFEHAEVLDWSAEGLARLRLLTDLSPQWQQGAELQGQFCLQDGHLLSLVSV
PcpS, sequence (Q9I4H2 entry or part of it): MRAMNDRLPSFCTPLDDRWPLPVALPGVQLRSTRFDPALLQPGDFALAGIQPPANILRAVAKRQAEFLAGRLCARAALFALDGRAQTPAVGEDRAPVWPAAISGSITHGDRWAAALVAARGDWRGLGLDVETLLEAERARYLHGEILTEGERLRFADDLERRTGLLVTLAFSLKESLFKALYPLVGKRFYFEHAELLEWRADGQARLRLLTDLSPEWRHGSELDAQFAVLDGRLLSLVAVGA
Sfp, sequence (G4NQW2 entry or part of it): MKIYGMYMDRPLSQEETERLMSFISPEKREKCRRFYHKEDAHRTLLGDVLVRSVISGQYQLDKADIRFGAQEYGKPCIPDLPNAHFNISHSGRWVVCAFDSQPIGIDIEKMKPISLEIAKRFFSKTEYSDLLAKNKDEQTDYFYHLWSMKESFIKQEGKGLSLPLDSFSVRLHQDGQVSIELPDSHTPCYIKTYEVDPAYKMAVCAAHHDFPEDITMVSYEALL

B1: The peptide carrier protein of BpsA (bPCP), purified recombinant His6 tagged (protein)
chain: FVAPRTETEKEIAAVWEKALRRENASVQDDFFESGGNSLIAVGLVRELNARLGVSLPLQSVLESPTIEKLARRLE
- IC50 (PcpS): 710 nM
- IC50 (PP1183): 300 nM
- IC50 (carrier protein competition with BpsA for limiting CoA) [1]: 0.71 µM
- kcat/Km (estimate derived from IC50) (Min^-1 · µM^-1) [1]: 7.77
- IC50 (carrier protein competition with BpsA for limiting CoA) [2]: 0.72 µM
- kcat/Km (estimate derived from IC50) (Min^-1 · µM^-1) [2]: 0.69
- IC50 (carrier protein competition with BpsA for limiting CoA) [3]: 0.3 µM
- kcat/Km (estimate derived from IC50) (Min^-1 · µM^-1) [3]: 3.88
- IC50 (Sfp): 720 nM
